The values that follow come from US6498233, “Nucleic acid transfer system” (Winfried).

The target in this series is scFv(FRP5)-deltaETA-deltaGAL4 (synthetic construct (Saccharomyces …)). Put plainly: EMSA; […] (printed ml); 50 mM Hepes pH 7.5, 50 mM KCl, 5 mM MgCl2, […], room temperature; […] (11.3). The conditions noted are these: tags: N-terminal FLAG and His6, C-terminal KDEL signal; chain copies: 2 (stated; dimer per site, two dimers on tandem site); label: 5'-32P.

B1: G4 oligonucleotide (two GAL4 motifs) (dsDNA)
DNA 1: AGCTTGGATCCGGAGGACAGTCCTCCGGAGACCGGAGGACAGTCCTCC
DNA 2: GATCGGAGGACTGTCCTCCGGTCTCCGGAGGACTGTCCTCCGGATCCA
As for B1, the binding result is reported as “binds”.
